Biological target: CA 15-3 (Cancer Antigen 15-3) (UniProt P15941 24-1097)
Assay: electrochemical aptasensor (CV, SWV, EIS); label-free, ferri/ferrocyanide redox probe; aptamer on g-C3N4/Fe3O4; linear 10-90 U/mL; PBS pH 7.4 (0.1 M), room temperature, 35 min incubation; 0.2 mM ferricyanide probe (label-free) or methylene blue in PBS (label-based)

Chain of CA 15-3 (Cancer Antigen 15-3) (P15941 24-1097): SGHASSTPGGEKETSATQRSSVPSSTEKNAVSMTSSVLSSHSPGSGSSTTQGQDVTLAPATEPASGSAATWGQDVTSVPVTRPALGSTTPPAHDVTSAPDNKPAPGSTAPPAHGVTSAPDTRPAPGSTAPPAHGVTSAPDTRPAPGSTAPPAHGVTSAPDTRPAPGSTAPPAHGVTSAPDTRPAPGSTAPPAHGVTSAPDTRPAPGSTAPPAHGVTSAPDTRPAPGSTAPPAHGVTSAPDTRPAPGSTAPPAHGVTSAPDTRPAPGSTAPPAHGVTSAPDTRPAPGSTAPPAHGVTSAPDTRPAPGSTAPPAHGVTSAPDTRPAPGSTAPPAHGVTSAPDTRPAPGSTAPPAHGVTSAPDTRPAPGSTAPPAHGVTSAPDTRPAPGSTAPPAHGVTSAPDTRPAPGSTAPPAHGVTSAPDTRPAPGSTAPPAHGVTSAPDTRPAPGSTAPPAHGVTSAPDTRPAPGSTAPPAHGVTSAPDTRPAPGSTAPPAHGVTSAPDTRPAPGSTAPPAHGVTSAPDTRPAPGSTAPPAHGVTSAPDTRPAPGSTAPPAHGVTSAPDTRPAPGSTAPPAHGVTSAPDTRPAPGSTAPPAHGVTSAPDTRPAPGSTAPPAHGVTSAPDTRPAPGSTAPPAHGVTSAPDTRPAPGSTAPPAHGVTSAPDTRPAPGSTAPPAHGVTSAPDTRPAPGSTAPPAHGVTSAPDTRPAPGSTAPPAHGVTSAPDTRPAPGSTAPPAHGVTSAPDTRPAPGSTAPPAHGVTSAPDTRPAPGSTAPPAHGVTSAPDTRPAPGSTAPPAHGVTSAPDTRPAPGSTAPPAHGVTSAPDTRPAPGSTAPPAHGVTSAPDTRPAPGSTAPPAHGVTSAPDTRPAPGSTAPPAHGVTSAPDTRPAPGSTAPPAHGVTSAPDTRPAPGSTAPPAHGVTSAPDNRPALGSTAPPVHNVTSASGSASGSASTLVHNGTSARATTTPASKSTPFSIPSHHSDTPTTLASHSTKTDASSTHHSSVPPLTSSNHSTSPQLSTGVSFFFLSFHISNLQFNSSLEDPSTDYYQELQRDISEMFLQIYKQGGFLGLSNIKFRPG

GAAGTGAATATGACAGATCACAACT (ssDNA) [CA 15-3 aptamer]: binds.
